Assay results published in publication PMC10648141, “Screening of Oral Potential Angiotensin-Converting Enzyme Inhibitory Peptides from Zizyphus jujuba Proteins Based on Gastrointestinal Digestion In Vivo” (International Journal of Molecular Sciences, 2023).
Where “and” joins values, the source holds several entries; their conditions need not be identical. Equal values may be shown once. Read-outs that look alike come from different tables or passages of the source. Residues, ends and D or L forms follow the SMILES beside them. No end group written: not given here.

Experiments:
ACE [1] = target: T1, ACE (Homo sapiens, UniProt P12821); set-up: method as in our group and the DFBP database; conditions: ACE-inhibitory activity used as 3D-QSAR input (training set 34, test set 12 marked *); ref our group and the DFBP database; cited from earlier work
T1 construct: purchased Sigma-Aldrich

ACE [2] = target: T1, ACE; experiment: ACE-inhibitory activity assay in vitro (HHL substrate, hippuric acid by HPLC); type: biochemical; conditions: for inhibition at 2000 µg/mL: 1 h; for IC50: five concentrations in triplicate
Description: The method used to determine ACE-inhibitory activity was designed according to that of Sangsawad et al. with minor modifications. […] The reaction mixture comprised 50 μL of peptide and 50 μL of ACE (25 mU/mL), undergoing pre-incubation for 5 min at 37 °C. Subsequently, 150 μL of substrate (8.3 mM HHL in 0.1 M Tris-HCl buffer with 500 mM NaCl at pH 8.3) was introduced, and the sample was further incubated at 37 °C for 60 min. Following the completion of the reaction, it was terminated via the addition of 1 M HCl. […] IC50 was used to express the activity of hydrolysate; all analyses were carried out under five different concentrations in triplicate.

[3] = Stability of peptides after simulated gastrointestinal digestion in vitro; type: in vitro ADME; conditions: pepsin (1000 U/mL) and pancreatin (50 U/mL); peptide 0.5 mg/mL; LC-MS (Q Exactive, ESI positive); peak area after/before digestion × 100
Description: The stability in vitro digestion followed the method we reported previously with minor modifications. Pepsin (1000 U/mL) and pancreatin (50 U/mL) were used to digest the peptide (0.5 mg/mL). A Q Exactive system (Thermo Fisher Scientific, USA) equipped with ESI in positive ion mode was used for mass spectrometric detection. Stability %=Peak area after digestion sample/Peak area before digestion sample×100%

[4] = peptide 2 mg/mL, HHL substrate, pH 8.3, 37 °C, 60 min, HPLC of hippuric acid, read-out: ACE Inhibition Rate (%) (2 mg/mL)
[5] = HHL substrate, pH 8.3, 37 °C, 60 min, HPLC of hippuric acid

T1 sequence (P12821 30-1306, species assumed): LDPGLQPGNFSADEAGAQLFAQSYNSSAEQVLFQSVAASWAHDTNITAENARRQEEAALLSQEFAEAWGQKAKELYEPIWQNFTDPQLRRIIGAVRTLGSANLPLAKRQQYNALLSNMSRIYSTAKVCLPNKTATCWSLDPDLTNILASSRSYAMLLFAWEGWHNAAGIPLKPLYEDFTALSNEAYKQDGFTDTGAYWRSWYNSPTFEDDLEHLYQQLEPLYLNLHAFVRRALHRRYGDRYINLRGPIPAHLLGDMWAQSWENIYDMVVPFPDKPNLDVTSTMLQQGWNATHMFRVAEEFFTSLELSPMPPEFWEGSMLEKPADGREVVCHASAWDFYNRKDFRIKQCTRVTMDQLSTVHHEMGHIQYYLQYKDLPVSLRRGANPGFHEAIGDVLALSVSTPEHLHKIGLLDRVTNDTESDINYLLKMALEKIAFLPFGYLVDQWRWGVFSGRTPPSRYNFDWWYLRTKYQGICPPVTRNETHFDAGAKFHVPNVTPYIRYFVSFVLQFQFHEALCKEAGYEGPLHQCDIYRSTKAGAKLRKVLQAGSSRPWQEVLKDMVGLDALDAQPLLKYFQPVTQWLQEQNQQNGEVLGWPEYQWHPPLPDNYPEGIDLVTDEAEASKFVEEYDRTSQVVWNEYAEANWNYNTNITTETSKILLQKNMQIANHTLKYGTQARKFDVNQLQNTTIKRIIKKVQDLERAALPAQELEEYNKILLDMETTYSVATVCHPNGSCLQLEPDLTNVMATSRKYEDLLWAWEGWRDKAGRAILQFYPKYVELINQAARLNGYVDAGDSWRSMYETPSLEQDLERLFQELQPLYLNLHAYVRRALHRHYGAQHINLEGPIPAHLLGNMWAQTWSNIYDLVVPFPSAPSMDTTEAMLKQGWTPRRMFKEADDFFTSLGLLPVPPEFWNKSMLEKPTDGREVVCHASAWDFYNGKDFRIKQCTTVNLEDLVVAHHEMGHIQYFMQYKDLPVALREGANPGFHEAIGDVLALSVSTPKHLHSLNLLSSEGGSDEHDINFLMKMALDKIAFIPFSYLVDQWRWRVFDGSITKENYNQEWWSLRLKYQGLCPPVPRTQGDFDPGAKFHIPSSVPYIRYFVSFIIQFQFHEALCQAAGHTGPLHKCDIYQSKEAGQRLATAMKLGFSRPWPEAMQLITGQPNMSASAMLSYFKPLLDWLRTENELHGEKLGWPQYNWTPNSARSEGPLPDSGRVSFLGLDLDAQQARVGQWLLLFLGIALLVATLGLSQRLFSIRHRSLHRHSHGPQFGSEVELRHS

Row | Molecule | PIC50 (ACE [1]) | further results
1 | AHSVRF [ACEI peptide, 3D-QSAR test set] | -1.26 | 
2 | AHSVRFY [ACEI peptide, 3D-QSAR test set] | -1.21 | 
3 | Pro-Ser-Phe-Gln-Pro (PSFQP) [ACEI peptide, 3D-QSAR training set] | -1.86 | 
4 | LVLPGELAK [ACEI peptide, 3D-QSAR training set] | -2.26 | 
5 | FPEVFGK [ACEI peptide, 3D-QSAR training set] | -2.15 | 
6 | Gln-Val-Gly-Pro (QVGP) [ACEI peptide, 3D-QSAR training set] | -2.21 | 
7 | NMAINPSK [ACEI peptide, 3D-QSAR training set] | -1.78 | 
8 | Tyr-Thr-Val-Phe (YTVF) [ACEI peptide, 3D-QSAR training set] | -1.94 | 
9 | Lys-Ser-Val [ACEI peptide, 3D-QSAR training set] | -3.01 | 
10 | Leu-Phe-Arg-Gln (LFRQ) [ACEI peptide, 3D-QSAR test set] | -1.23 | 
11 | YETGNGIK [ACEI peptide, 3D-QSAR training set] | -0.57 | 
12 | KVKPL [KVKPL] |  | inhibition at 2000 µg/mL (ACE [2]; [4]): -14.2%
13 | LPQNILP [ACEI peptide, 3D-QSAR test set] | -1.66 | 
14 | Val-Leu-Pro-Tyr-Pro (VLPYP) [ACEI peptide, 3D-QSAR training set] | -1.56 | 
15 | IIAPPER [ACEI peptide, 3D-QSAR training set] | -0.94 | 
16 | GYALPHA [ACEI peptide, 3D-QSAR training set] | -1.44 | 
17 | GRVSNCAA [ACEI peptide, 3D-QSAR training set] | -1.76 | 
18 | KALVAP [KALVAP] |  | inhibition at 2000 µg/mL (ACE [2]; [4]): 100%; IC50 (ACE [2]; [5]): 17.1 µM; Simulated Gastrointestinal Digestion Stability % [3]: 78%
19 | His-Cys-His-Thr (HCHT) [ACEI peptide, 3D-QSAR training set] | -2.06 | 
20 | ADGLWL [ACEI peptide, 3D-QSAR training set] | -2.45 | 
21 | LPGVLPVA [ACEI peptide, 3D-QSAR test set] | 0.11 | 
22 | LGPLGHQ [ACEI peptide, 3D-QSAR training set] | -0.63 | 
23 | LVLPGE [ACEI hexapeptide of the authors' previous studies; alignment template, training set] | -1.13 | 
24 | PANIKWGD [ACEI peptide, 3D-QSAR training set] | -1.32 | 
25 | Val-His-Leu-Pro-Pro (VHLPP) [ACEI peptide, 3D-QSAR test set] | -1.26 | 
26 | Tyr-Pro-Gly [ACEI peptide, 3D-QSAR training set] | -1.37 | 
27 | Cys-Cys-Asn-Lys (CCNK) [ACEI peptide, 3D-QSAR training set] | -0.95 | 

Row | Molecule | PIC50 (ACE [1]) | further results
28 | Leu-Ala-Lys [ACEI peptide, 3D-QSAR test set] | -1.68 | 
29 | Leu-Val-Leu [ACEI peptide, 3D-QSAR training set] | -1.09 | 
30 | GKDAVIV [ACEI peptide, 3D-QSAR training set] | -1.26 | 
31 | Leu-Gln-Lys-Trp (LQKW) [ACEI peptide, 3D-QSAR test set] | -1.54 | 
32 | Ser-Leu-Pro-Gln-Asn (SLPQN) [ACEI peptide, 3D-QSAR training set] | -0.98 | 
33 | Ala-His-Ser-Val (AHSV) [ACEI peptide, 3D-QSAR training set] | -3.26 | 
34 | RLPHV [RLPHV] |  | inhibition at 2000 µg/mL (ACE [2]; [4]): 100%; IC50 (ACE [2]; [5]): 3.81 µM and 6.01 µM; Simulated Gastrointestinal Digestion Stability % [3]: 82%
35 | LEKPLL [LEKPLL] |  | inhibition at 2000 µg/mL (ACE [2]; [4]): 24.2%
36 | LHPGDAQR [ACEI peptide, 3D-QSAR training set] | -1.01 | 
37 | GIPLPLI [ACEI peptide, 3D-QSAR training set] | -1.87 | 
38 | His-Cys-His-Thr-Asn (HCHTN) [ACEI peptide, 3D-QSAR test set] | -1.48 | 
39 | FCLYELAR [ACEI peptide, 3D-QSAR training set] | -1.50 | 
40 | PTHIKWGD [ACEI peptide, 3D-QSAR training set] | -0.18 | 
41 | N=C(N)NCCC[C@H](NC(=O)[C@@H]1CCCN1C(=O)[C@H](Cc1ccccc1)NC(=O)[C@@H](N)CCCNC(=N)N)C(=O)O [RFPR] (H-RFPR-OH) |  | inhibition at 2000 µg/mL (ACE [2]; [4]): 22.9%
42 | CC(C)C[C@H](NC(=O)[C@H](Cc1c[nH]cn1)NC(=O)[C@H](CC(C)C)NC(=O)[C@@H](N)Cc1ccc(O)cc1)C(=O)O [YLHL] (H-YLHL-OH) |  | inhibition at 2000 µg/mL (ACE [2]; pH 8.3, read-out: ACE Inhibition Rate (%) (2 mg/mL)): 65.4%
43 | N=C(N)NCCC[C@H](NC(=O)[C@H](CCC(=O)O)NC(=O)[C@@H]1CCCN1)C(=O)N[C@@H](CCCCN)C(=O)O [PERK] (H-PERK-OH) |  | inhibition at 2000 µg/mL (ACE [2]; [4]): 4.5%
44 | TVKPGL [TVKPGL] |  | inhibition at 2000 µg/mL (ACE [2]; [4]): 100%; IC50 (ACE [2]; [5]): 6.01 µM and 3.81 µM; Simulated Gastrointestinal Digestion Stability % [3]: 90%
45 | Phe-Pro-Gln-Tyr (FPQY) [ACEI peptide, 3D-QSAR training set] | -2.48 | 
46 | KVREGTTY [ACEI peptide, 3D-QSAR training set] | -2.01 | 
47 | LEKLVT [LEKLVT] |  | inhibition at 2000 µg/mL (ACE [2]; [4]): 30.5%
48 | TFQGPPHGIQVER [ACEI peptide, 3D-QSAR training set] | -0.53 | 
49 | IGPGLGR [ACEI peptide, 3D-QSAR training set] | -2.32 | 
50 | FQKVVAK [ACEI peptide, 3D-QSAR test set] | -0.32 | 
51 | CCNKSV (cysteine pairing not given here) [ACEI peptide, 3D-QSAR test set] | -1.18 | 
52 | TYLPVH [ACEI peptide, 3D-QSAR test set] | -0.14 | 
53 | Asp-Phe-Gly [ACEI peptide, 3D-QSAR training set] | -1.65 | 
54 | PRPKPPP [PRPKPPP] |  | inhibition at 2000 µg/mL (ACE [2]; [4]): 74.8%
